Experimental data reported in the RNAGym collection of RNA variant scans (doi:10.1093/molbev/msab373).

B1: Azoarcus group I ribozyme (parent)
chain: GUGCCUUGCGCCGGGAAACCACGCAAGGGAUGGUGUCAAAUUCGGCGAAACCUAAGCGCCCGCCCGGGCGUAUGGCAACGCCGAGCCAAGCUUCGGCGCCUGCGCCGAUGAAGGUGUAGAGACUAGACGGCACCCACCUAAGGCAAACGCUAUGGUGAAGGCAUAGUCCAGGGAGUGGCGAAAGUCACACAAACCGG

Variants of: B1
Test: reverse-splicing fitness (ratio to wild type); higher = more active; in vitro selection; Mg2+ level not given
In short: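 An in vitro group I ribozyme library with randomized positions was T7-transcribed and gel-purified. In triplicate, 10 pmol RNA in EPPS pH 7.5 was reacted with 50 pmoles of a 30-nt RNA substrate for 1 h at 37 °C across several added MgCl2 levels (1–48 mM), then stopped with EDTA. Products were reverse transcribed from a substrate-complementary primer, PCR-amplified and sequenced (HiSeq 4000). Fitness is a variant's read proportion after selection over that before, normalised to wild type.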

Row | Variant | reverse-splicing fitness
1 | C82U A120U A145G C150A C169A U176A | 0.00482
2 | C82U A120U A145G C150A C169A U176G | 0.00241
3 | C82U A120U A145G C150A C169A U176C | 0.00294
4 | C82U A120U A145U C150U C169A | 0.0024
5 | C82U A120U A145U C150U C169G | 0.00432
6 | C82U A120U A145U C150U C169U | 0.00476
7 | C82U A120U A145U C150A C169G U176C | 0.00274
8 | C82U A120U A145U C150A C169G U176A | 0.00218
9 | C82U A120U A145U C150A C169G U176G | 0.00147
10 | C82U A120U A145U C150U | 0.106
11 | C82U A120U A145U C150G | 0.0184
12 | C82U A120U A145U C150A | 0.0156
13 | C82U A120U C150G C169A U176G | 0.00234
14 | C82U A120U C150G C169A U176A | 0.00476
15 | C82U A120U C150G C169A U176C | 0.003
16 | C82U A120U A145C U176A | 0.0354
17 | C82U A120U A145C U176C | 0.0503
18 | C82U A120U A145C U176G | 0.011
19 | C82U A120U A145U C150G C169U | 0.00244
20 | C82U A120U A145U C150G C169A | 0.00259
21 | C82U A120U A145U C150G C169G | 0.00248

Row | Variant | reverse-splicing fitness
22 | C82U A120U A145U C150G C169A U176C | 0.00203
23 | C82U A120U A145U C150G C169A U176G | 0.0021
24 | C82U A120U A145U C150G C169A U176A | 0.00252
25 | C82U A120U A145U C169A U176G | 0.00174
26 | C82U A120U A145U C169A U176C | 0.00166
27 | C82U A120U A145U C169A U176A | 0.00185
28 | C82U A120U A145U U176C | 0.0847
29 | C82U A120U A145U U176G | 0.013
30 | C82U A120U A145U U176A | 0.0411
31 | C82U A120U A145G C150G C169U U176C | 0.00545
32 | C82U A120U A145G C150G C169U U176A | 0.00708
33 | C82U A120U A145G C150G C169U U176G | 0.00348
34 | C82U A120U A145U C169G U176A | 0.00182
35 | C82U A120U A145U C169G U176C | 0.00267
36 | C82U A120U A145U C169G U176G | 0.0013
37 | C82U A120U A145U C150U C169A U176C | 0.00256
38 | C82U A120U A145U C150U C169A U176G | 0.0019
39 | C82U A120U A145U C150U C169A U176A | 0.00262
40 | C82U A120U A145U C150G C169U U176C | 0.00297
41 | C82U A120U A145U C150G C169U U176A | 0.00257
42 | C82U A120U A145U C150G C169U U176G | 0.00186

Row | Variant | reverse-splicing fitness
43 | C82U A120U A145G C169U U176A | 0.00293
44 | C82U A120U A145G C169U U176C | 0.00381
45 | C82U A120U A145G C169U U176G | 0.00155
46 | C82U A120U A145U C150U C169U U176C | 0.00368
47 | C82U A120U A145U C150U C169U U176G | 0.00217
48 | C82U A120U A145U C150U C169U U176A | 0.0028
49 | C82U A120U A145U C150A C169A U176C | 0.00203
50 | C82U A120U A145U C150A C169A U176A | 0.00221
51 | C82U A120U A145U C150A C169A U176G | 0.00164
52 | C82U A120U C150A U176G | 0.00418
53 | C82U A120U C150A U176A | 0.00756
54 | C82U A120U C150A U176C | 0.0109
55 | C82U A120U A145G C169G U176G | 0.00136
56 | C82U A120U A145G C169G U176C | 0.00346
57 | C82U A120U A145G C169G U176A | 0.00271
58 | C82U A120U A145G C150G U176C | 0.0113
59 | C82U A120U A145G C150G U176G | 0.00382
60 | C82U A120U A145G C150G U176A | 0.00711
61 | C82U A120U A145G C150U C169U U176G | 0.00198
62 | C82U A120U A145G C150U C169U U176A | 0.00396
63 | C82U A120U A145G C150U C169U U176C | 0.00389

Row | Variant | reverse-splicing fitness
64 | C82U A120U C150A C169G | 0.00313
65 | C82U A120U C150A C169A | 0.00297
66 | C82U A120U C150A C169U | 0.00341
67 | C82U A120U A145G C150G C169G U176C | 0.00499
68 | C82U A120U A145G C150G C169G U176A | 0.00758
69 | C82U A120U A145G C150G C169G U176G | 0.00346
70 | C82U A120U A145U C169A | 0.00208
71 | C82U A120U A145U C169G | 0.00533
72 | C82U A120U A145U C169U | 0.00594
73 | C82U A120U A145G C150G C169A U176C | 0.00568
74 | C82U A120U A145G C150G C169A U176A | 0.0107
75 | C82U A120U A145G C150G C169A U176G | 0.00459
76 | C82U A120U A145U C150A C169U U176A | 0.0025
77 | C82U A120U A145U C150A C169U U176G | 0.00172
78 | C82U A120U A145U C150A C169U U176C | 0.002
79 | C82U A120U C150A C169U U176G | 0.00201
80 | C82U A120U C150A C169U U176C | 0.00331
81 | C82U A120U C150A C169U U176A | 0.00411
82 | C82U A120U A145U C150A U176A | 0.00666
83 | C82U A120U A145U C150A U176G | 0.00379
